B1: Hairpin Ribozyme (parent)
chain: GUCCUCUUUCACGUGCGCGUGAAAGAGAGAAGUGAACCAGAGAAACACACGUUGUGGUAUAUUACCUGGUA

In the data set the parent is B1. As to the kind of experiment: self-cleavage, relative activity (ratio to wild type); higher = more cleavage; co-transcriptional.
For G13A G29C, the self-cleavage is 0.153. As for G13C C18U, the self-cleavage came to 0.817.

For G13C C18G, the self-cleavage was 0.807. Turning to U14A A59U, the self-cleavage was determined as 0.28. On to G13C U62C, for which the self-cleavage came to 0.147. Take G13C C65U: the self-cleavage is 0.243. The figure for C12U G29C is 0.133. The figure for C12U G29U is 0.0791; for G13A U70A it is 0.735; for G13A U70G it is 0.629. Regarding C12G A61G, the self-cleavage came to 0.154. As to C12G A61U, the self-cleavage was determined as 0.217. As for G13C G29C, the self-cleavage was determined as 0.189. Turning to C12G U60G, the self-cleavage worked out at 0.452. The figure for G13C A59U is 0.132.

Consider C12U G32C, for which the self-cleavage is 0.134. The figure for G13C G54U is 0.532.

Regarding U14A A45C, the self-cleavage worked out at 0.21. Regarding U14A A45U, the self-cleavage is 0.116.

In the case of G13A A24G, the self-cleavage was determined as 0.69.

Turning to G13A A24C, the self-cleavage stood at 0.76. Turning to G13U G54C, the self-cleavage came out at 0.293. Turning to C12U U63C, the self-cleavage turned out to be 0.0427.

In the case of G13U U63C, the self-cleavage was 0.181.

For the variant G13U U63A, the self-cleavage was 0.103. Turning to G13A C50G, the self-cleavage turned out to be 0.316.

On to U14A G69A, for which the self-cleavage turned out to be 0.219. For the variant G13U U53G, the self-cleavage worked out at 0.716. With G13U A22G, the self-cleavage came to 0.659. On to C12U G57U, for which the self-cleavage turned out to be 0.262. Consider C12U G57A, for which the self-cleavage stood at 0.215. Regarding U14A C38U, the self-cleavage turned out to be 0.478. As to U14A G40A, the self-cleavage is 0.317. As to U14A G40U, the self-cleavage was 0.127. As for U14A G40C, the self-cleavage came to 0.187. On to C12G C66G, for which the self-cleavage was 0.26.

Regarding C12G C66U, the self-cleavage came to 0.369. As to G13C U14C, the self-cleavage is 0.583. G13U U58G: the self-cleavage was 0.645.

Take G13A A31U: the self-cleavage turned out to be 0.202. For the variant C12U C38U, the self-cleavage is 0.523. For G13A G54A, the self-cleavage was determined as 0.443. The result for C12G G15C reads 0.756; that for C12G G15U, 0.906; that for G13C G57A, 0.215. In the case of G13C G57C, the self-cleavage was 0.125. The figure for G13A G40A is 0.33; for G13A A28G it is 1. With G13U U52A, the self-cleavage turned out to be 0.83. Consider G13C A39U, for which the self-cleavage was found to be 0.289. As to G13A C38U, the self-cleavage stood at 0.396. With G13A G56A, the self-cleavage turned out to be 0.188. In the case of C12U A64C, the self-cleavage stood at 0.148.

On to G13U C50A, for which the self-cleavage came to 0.213.

As to G13U C50G, the self-cleavage was found to be 0.259. As for U14A C65A, the self-cleavage turned out to be 0.958. Take C12G A64G: the self-cleavage was 0.466. As for C12U A59C, the self-cleavage came out at 0.149. C12G G32C: the self-cleavage is 0.0993.

As for G13U U14G, the self-cleavage is 0.729. Regarding G13U U14A, the self-cleavage turned out to be 0.88. Turning to C12U A71U, the self-cleavage is 0.656.

With C12U A71C, the self-cleavage came out at 1.31. As for C12G G17A, the self-cleavage was found to be 0.913. On to G13A C37G, for which the self-cleavage worked out at 0.174. The figure for G13A C37U is 0.637. The result for G13C C48A reads 0.16. As to C12G A47U, the self-cleavage stood at 0.183. For the variant C12G A47G, the self-cleavage worked out at 0.076. G13A A44U: the self-cleavage worked out at 0.133.

G13A A44C: the self-cleavage amounted to 0.195.

G13C G21C: the self-cleavage is 0.587.

C12U C66A: the self-cleavage was determined as 0.179. G13U A43C: the self-cleavage amounted to 0.147. As for G13C C46G, the self-cleavage is 0.164. The result for G13U G29C reads 0.133; that for G13U G29A, 0.157.

Regarding C12U U33C, the self-cleavage worked out at 0.187. On to C12G U70G, for which the self-cleavage was determined as 0.615. As to U14A A61G, the self-cleavage stood at 0.101. The result for U14A A61U reads 0.266; that for C12G G21U, 0.663. With G13A A23U, the self-cleavage was found to be 0.734.

As for C12G U55A, the self-cleavage stood at 0.25. On to G13U A28C, for which the self-cleavage stood at 0.34. As for U14A C37A, the self-cleavage came to 0.378.

With G13A A61G, the self-cleavage was determined as 0.196. G13A A61C: the self-cleavage was found to be 0.223. For G13C U33C, the self-cleavage was found to be 0.296. C12G A39C: the self-cleavage was found to be 0.436. On to C12U A45C, for which the self-cleavage came out at 0.201. On to G13C G42C, for which the self-cleavage is 0.3. On to G13C G42U, for which the self-cleavage was determined as 0.201.

As for C12G U53A, the self-cleavage was 0.911. C12G U53C: the self-cleavage amounted to 0.919. Turning to C12G U53G, the self-cleavage was 0.562.

As to G13C U70G, the self-cleavage was determined as 0.502. Take C12U G25U: the self-cleavage worked out at 0.52. For C12U G25C, the self-cleavage was determined as 0.511.

As for G13C A71C, the self-cleavage was found to be 1.22.

As to G13A G32U, the self-cleavage stood at 0.205. The result for G13U A61C reads 0.173; that for G13U A61G, 0.147; that for G13C U60C, 0.912. The result for G13C G68U reads 0.193. Consider C12G A59G, for which the self-cleavage came to 0.18. The result for G13U G56U reads 0.135. As for G13U G56A, the self-cleavage stood at 0.127.

Consider U14A G29U, for which the self-cleavage came out at 0.206.

In the case of U14A G29C, the self-cleavage stood at 0.168. Turning to G13C A61C, the self-cleavage turned out to be 0.155. In the case of G13A A47C, the self-cleavage came to 0.352. As to G13A A47G, the self-cleavage amounted to 0.185. Regarding C12U G19C, the self-cleavage amounted to 0.955. As to G13U C38U, the self-cleavage came out at 0.231. With G13U C38A, the self-cleavage came out at 0.188. C12U U67A: the self-cleavage turned out to be 0.348. The result for C12U U67G reads 0.286; that for G13C A49G, 0.424; that for G13C A49C, 0.115. The figure for G13C A49U is 0.199; for C12G A35G it is 0.874. The result for G13U G69A reads 0.312.

As for G13C G69U, the self-cleavage came to 0.217. Take G13C G32U: the self-cleavage stood at 0.027. On to G13C G32A, for which the self-cleavage came to 0.12. On to C12G C50U, for which the self-cleavage is 0.291.

For G13A A22U, the self-cleavage was found to be 0.748.

Consider C12G A24U, for which the self-cleavage was determined as 0.669. C12U C48G: the self-cleavage is 0.185. With C12U U14G, the self-cleavage turned out to be 0.602. Take C12U U14A: the self-cleavage was determined as 0.73. The result for G13U C46G reads 0.121; that for G13U C46U, 0.137. Consider C12U G40C, for which the self-cleavage was determined as 0.194. For C12U G40A, the self-cleavage is 0.358. Take C12G G29C: the self-cleavage came to 0.13.

Turning to C12G G29U, the self-cleavage worked out at 0.234. The result for C12U U58A reads 0.597. Take C12U U58G: the self-cleavage came out at 0.584. For the variant G13U G68A, the self-cleavage worked out at 0.207. The figure for C12G A45G is 0.0996. Turning to C12G U52C, the self-cleavage is 0.899. In the case of G13U C66U, the self-cleavage stood at 0.502. As for G13C G17A, the self-cleavage was 0.839.

With G13C G17C, the self-cleavage was 0.368. G13U G19U: the self-cleavage is 0.895. Take G13A A45C: the self-cleavage was determined as 0.135.

Consider G13A A45U, for which the self-cleavage stood at 0.0732. Regarding C12G C37G, the self-cleavage is 0.294. Turning to G13A U53C, the self-cleavage was 0.645.

For C12U C37U, the self-cleavage came out at 0.504. Consider U14A C16U, for which the self-cleavage stood at 0.813. On to U14A C16A, for which the self-cleavage was 0.849. Regarding U14A C16G, the self-cleavage is 0.594.

Consider U14A A26G, for which the self-cleavage came out at 0.575. Consider C12U C46G, for which the self-cleavage worked out at 0.142. Take C12U C46A: the self-cleavage was determined as 0.177. Turning to G13U U60C, the self-cleavage is 0.902. On to G13U U60G, for which the self-cleavage came out at 0.404. On to G13U U60A, for which the self-cleavage came to 0.696. G13A A39C: the self-cleavage was determined as 0.446.

G13A A39U: the self-cleavage was determined as 0.32. As for G13A A49C, the self-cleavage amounted to 0.102. Take C12G C18G: the self-cleavage worked out at 0.727. On to C12G C18U, for which the self-cleavage turned out to be 0.889.

Turning to C12G C18A, the self-cleavage came to 0.926.

For the origin of these results see the RNAGym collection of RNA variant scans (doi:10.7554/elife.80360).
